Values belong to the sequence of their own block, whether it stands above or below them.
Legend:
AncSZ = assay: phosphorylation enrichment, bacterial display (enrichment ratio); higher = better substrate or ligand; peptides without Tyr show the background
EPHB1 = EPHB1 (UniProt P54762); assay: as above
EPHB2 = EPHB2 (UniProt P29323); assay: as above
FGFR1 = FGFR1 (UniProt P11362); assay: as above
FGFR3 = FGFR3 (UniProt P22607); assay: as above
Fer (mouse) = assay: as above
Fes = Fes (UniProt P07332); assay: as above
Fyn = Fyn (UniProt P06241); assay: as above
Hck = Hck (UniProt P08631); assay: as above
Jak2 = Jak2 (UniProt O60674); assay: as above
MERTK = MERTK (UniProt Q12866); assay: as above
c-Abl (mouse) = assay: as above
c-Src = assay: as above
Grb2 SH2 = Grb2 SH2 (UniProt P62993); assay: SH2 binding enrichment of the phosphorylated peptide, bacterial display (enrichment ratio); higher = better substrate or ligand; peptides without Tyr show the background
SHP2-C SH2 = assay: as above
c-Src SH2 = assay: as above
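Wherever SH2 binding enrichment of the phosphorylated peptide, bacterial display is given: peptide library displayed on the E. coli surface as eCPX fusions, selected cells deep-sequenced, score is each peptide's frequency after selection divided by its frequency in the input.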
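Wherever phosphorylation enrichment, bacterial display is given: 11-residue human phosphosite peptides and single-mutation variants displayed on the E. coli surface, counted by deep sequencing, each peptide's frequency after selection divided by its frequency in the unselected input library; frequency after pTyr selection over input frequency; kinase dosed for 20-30% of maximal phosphorylation in three min.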

FGFR1, sequence (P11362 whole entry, looked up): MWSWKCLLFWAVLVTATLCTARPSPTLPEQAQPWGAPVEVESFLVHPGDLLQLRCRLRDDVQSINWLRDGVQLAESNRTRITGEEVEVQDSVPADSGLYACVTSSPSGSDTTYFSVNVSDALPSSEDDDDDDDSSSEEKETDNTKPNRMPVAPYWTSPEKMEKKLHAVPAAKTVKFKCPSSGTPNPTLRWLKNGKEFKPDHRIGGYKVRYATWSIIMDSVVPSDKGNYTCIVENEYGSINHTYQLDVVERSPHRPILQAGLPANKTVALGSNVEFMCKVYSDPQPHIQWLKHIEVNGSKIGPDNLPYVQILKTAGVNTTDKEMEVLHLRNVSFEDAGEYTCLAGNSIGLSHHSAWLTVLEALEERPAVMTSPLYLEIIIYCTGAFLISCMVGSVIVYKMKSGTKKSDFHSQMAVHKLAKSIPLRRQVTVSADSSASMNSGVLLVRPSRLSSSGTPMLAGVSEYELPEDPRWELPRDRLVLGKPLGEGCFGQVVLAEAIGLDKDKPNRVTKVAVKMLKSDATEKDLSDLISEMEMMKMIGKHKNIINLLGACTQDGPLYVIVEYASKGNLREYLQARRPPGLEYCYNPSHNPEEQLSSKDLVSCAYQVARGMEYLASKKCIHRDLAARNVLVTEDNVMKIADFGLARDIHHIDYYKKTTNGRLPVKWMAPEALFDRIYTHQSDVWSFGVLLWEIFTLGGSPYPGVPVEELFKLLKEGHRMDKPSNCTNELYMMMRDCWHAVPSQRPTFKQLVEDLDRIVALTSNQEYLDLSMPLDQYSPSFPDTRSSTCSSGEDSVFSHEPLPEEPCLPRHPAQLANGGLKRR
Hck, sequence (P08631 whole entry, looked up): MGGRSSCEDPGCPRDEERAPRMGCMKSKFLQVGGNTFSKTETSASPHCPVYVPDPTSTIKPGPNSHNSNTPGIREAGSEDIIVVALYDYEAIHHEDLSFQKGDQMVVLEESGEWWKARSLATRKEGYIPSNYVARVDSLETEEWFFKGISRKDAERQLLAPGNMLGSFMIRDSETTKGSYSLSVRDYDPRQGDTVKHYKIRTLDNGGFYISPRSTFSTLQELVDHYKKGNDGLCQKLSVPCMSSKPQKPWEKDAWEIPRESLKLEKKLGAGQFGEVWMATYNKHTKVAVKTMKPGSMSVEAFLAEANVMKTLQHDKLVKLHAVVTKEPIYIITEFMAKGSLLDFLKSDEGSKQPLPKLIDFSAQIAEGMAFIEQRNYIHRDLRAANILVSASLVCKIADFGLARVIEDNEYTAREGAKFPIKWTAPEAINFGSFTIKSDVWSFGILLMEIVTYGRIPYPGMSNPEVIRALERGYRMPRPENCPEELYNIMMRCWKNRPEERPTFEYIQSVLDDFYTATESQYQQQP
Fes, sequence (P07332 whole entry, looked up): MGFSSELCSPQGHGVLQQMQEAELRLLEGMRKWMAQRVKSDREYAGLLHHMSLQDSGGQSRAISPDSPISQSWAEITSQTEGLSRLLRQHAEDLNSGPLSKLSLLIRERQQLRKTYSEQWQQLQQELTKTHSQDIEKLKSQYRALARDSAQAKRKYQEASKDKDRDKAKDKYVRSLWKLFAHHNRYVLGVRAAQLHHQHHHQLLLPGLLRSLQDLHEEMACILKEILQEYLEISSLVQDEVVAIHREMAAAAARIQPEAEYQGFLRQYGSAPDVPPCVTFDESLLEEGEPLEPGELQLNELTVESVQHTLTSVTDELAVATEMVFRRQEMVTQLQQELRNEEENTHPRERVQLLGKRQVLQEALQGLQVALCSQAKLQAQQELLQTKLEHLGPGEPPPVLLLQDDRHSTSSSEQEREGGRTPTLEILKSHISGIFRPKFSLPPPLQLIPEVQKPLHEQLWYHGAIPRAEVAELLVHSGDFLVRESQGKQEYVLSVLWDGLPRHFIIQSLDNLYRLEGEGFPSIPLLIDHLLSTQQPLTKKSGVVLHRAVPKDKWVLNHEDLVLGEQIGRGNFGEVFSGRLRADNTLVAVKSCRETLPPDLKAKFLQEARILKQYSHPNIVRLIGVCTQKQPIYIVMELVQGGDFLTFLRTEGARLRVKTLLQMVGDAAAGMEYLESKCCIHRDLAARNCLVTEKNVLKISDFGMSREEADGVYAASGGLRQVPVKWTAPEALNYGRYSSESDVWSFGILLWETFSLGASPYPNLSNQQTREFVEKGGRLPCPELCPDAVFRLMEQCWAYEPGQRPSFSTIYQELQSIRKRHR
EPHB2, sequence (P29323 whole entry, looked up): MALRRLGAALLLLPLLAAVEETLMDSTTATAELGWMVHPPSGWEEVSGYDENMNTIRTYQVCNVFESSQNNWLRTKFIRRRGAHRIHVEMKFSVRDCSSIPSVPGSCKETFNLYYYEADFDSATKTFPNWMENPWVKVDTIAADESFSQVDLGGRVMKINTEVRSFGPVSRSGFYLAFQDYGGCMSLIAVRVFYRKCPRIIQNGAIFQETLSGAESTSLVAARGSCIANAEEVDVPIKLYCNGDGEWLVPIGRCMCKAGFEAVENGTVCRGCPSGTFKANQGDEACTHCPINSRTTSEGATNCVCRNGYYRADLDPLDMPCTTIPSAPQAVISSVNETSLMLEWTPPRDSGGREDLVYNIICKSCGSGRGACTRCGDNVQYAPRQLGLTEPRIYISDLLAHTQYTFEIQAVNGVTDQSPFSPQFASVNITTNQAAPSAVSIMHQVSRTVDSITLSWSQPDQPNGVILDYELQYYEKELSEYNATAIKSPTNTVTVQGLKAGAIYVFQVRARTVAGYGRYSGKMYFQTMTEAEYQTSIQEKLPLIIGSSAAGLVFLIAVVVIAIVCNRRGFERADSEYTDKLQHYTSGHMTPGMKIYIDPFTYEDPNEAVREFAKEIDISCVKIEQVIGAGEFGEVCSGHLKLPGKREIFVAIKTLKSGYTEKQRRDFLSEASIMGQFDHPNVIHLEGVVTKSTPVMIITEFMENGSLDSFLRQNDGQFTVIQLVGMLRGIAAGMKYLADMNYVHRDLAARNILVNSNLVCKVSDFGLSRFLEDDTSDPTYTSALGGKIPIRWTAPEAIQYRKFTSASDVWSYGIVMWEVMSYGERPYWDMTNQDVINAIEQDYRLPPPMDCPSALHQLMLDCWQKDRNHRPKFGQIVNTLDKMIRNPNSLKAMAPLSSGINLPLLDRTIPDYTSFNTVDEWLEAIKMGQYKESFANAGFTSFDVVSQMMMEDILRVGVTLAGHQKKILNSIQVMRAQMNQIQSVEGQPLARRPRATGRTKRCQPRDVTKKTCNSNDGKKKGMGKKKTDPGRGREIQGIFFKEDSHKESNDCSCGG
EPHB1, sequence (P54762 whole entry, looked up): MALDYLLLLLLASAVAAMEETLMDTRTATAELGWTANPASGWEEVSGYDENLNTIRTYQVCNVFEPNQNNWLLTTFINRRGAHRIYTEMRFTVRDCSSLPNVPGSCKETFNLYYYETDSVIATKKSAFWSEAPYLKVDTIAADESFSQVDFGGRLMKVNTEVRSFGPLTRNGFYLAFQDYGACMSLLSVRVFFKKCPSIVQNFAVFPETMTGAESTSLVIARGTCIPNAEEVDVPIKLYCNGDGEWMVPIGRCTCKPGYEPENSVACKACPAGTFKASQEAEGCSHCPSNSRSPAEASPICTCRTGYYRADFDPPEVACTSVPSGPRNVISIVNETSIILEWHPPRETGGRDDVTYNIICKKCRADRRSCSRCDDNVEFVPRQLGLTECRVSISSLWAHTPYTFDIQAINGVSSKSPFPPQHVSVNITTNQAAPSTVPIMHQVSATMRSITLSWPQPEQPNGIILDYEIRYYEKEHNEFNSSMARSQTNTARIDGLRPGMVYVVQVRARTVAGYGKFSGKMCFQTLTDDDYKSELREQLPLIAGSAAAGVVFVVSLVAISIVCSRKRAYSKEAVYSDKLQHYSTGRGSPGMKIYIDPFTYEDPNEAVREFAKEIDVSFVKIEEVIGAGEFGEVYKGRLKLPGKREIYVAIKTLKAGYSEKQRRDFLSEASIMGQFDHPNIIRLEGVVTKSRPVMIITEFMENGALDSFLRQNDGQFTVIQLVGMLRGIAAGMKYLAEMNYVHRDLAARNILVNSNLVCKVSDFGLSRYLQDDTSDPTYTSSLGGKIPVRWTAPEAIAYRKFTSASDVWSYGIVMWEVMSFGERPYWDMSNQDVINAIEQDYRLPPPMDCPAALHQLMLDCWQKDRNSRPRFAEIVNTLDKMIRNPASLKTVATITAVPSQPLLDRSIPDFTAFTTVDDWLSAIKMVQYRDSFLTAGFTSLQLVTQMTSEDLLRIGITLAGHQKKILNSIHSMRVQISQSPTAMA
Fyn, sequence (P06241 whole entry, looked up): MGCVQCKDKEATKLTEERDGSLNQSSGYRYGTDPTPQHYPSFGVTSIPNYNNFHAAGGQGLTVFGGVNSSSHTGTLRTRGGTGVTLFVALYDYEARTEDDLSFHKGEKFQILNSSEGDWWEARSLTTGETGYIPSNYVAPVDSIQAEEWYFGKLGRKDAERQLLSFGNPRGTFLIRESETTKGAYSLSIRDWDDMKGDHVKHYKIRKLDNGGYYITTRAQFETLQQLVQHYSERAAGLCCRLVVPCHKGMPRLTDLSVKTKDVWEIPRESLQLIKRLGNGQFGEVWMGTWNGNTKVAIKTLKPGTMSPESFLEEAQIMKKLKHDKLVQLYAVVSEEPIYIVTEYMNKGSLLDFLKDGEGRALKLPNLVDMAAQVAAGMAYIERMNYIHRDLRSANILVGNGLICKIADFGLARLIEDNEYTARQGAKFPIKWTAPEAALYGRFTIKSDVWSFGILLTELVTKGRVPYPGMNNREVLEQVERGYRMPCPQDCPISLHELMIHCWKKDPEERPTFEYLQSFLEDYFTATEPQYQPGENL

- SH2 binding enrichment (Grb2 SH2): 1.29
- SH2 binding enrichment (SHP2-C SH2): 1.17
- SH2 binding enrichment (c-Src SH2): 0.848
Sequence: WASGIYFVPKG [APBB1IP_Y340_R335W_YF]
- phosphorylation enrichment (AncSZ): 2.81
- phosphorylation enrichment (EPHB1): 10.1
- phosphorylation enrichment (EPHB2): 10
- phosphorylation enrichment (FGFR1): 4.77
- phosphorylation enrichment (FGFR3): 4.26
- phosphorylation enrichment (Fer (mouse)): 2.87
- phosphorylation enrichment (Fes): 0.993
- phosphorylation enrichment (Fyn): 7.44
- phosphorylation enrichment (Hck): 7.16
- phosphorylation enrichment (Jak2): 7.69
- phosphorylation enrichment (MERTK): 9
- phosphorylation enrichment (c-Abl (mouse)): 28.7
- phosphorylation enrichment (c-Src): 5.32

- SH2 binding enrichment (Grb2 SH2): 0.938
- SH2 binding enrichment (SHP2-C SH2): 0.675
- SH2 binding enrichment (c-Src SH2): 0.487
Sequence: PKDSAYVTWEP
- phosphorylation enrichment (AncSZ): 1.66
- phosphorylation enrichment (EPHB1): 1.03
- phosphorylation enrichment (EPHB2): 0.798
- phosphorylation enrichment (FGFR1): 2.14
- phosphorylation enrichment (FGFR3): 1.45
- phosphorylation enrichment (Fer (mouse)): 2.5
- phosphorylation enrichment (Fes): 1.4
- phosphorylation enrichment (Fyn): 2.17
- phosphorylation enrichment (Hck): 2.38
- phosphorylation enrichment (Jak2): 1.36
- phosphorylation enrichment (MERTK): 1.39
- phosphorylation enrichment (c-Abl (mouse)): 1.16
- phosphorylation enrichment (c-Src): 2.02

- SH2 binding enrichment (Grb2 SH2): 0.91
- SH2 binding enrichment (SHP2-C SH2): 0.598
- SH2 binding enrichment (c-Src SH2): 0.747
Sequence: HEKKVYSFCGT [RPS6KA3_Y226_A225V]
- phosphorylation enrichment (AncSZ): 0.991
- phosphorylation enrichment (EPHB1): 0.736
- phosphorylation enrichment (EPHB2): 0.68
- phosphorylation enrichment (FGFR1): 0.74
- phosphorylation enrichment (FGFR3): 0.842
- phosphorylation enrichment (Fer (mouse)): 0.431
- phosphorylation enrichment (Fes): 1.03
- phosphorylation enrichment (Fyn): 0.58
- phosphorylation enrichment (Hck): 0.645
- phosphorylation enrichment (Jak2): 0.692
- phosphorylation enrichment (MERTK): 0.881
- phosphorylation enrichment (c-Abl (mouse)): 0.838
- phosphorylation enrichment (c-Src): 0.742

- SH2 binding enrichment (Grb2 SH2): 1.09
- SH2 binding enrichment (SHP2-C SH2): 1.08
- SH2 binding enrichment (c-Src SH2): 1.55
Sequence: SFLFHYADDSF [RAB3C_Y50_R49H]
- phosphorylation enrichment (AncSZ): 0.905
- phosphorylation enrichment (EPHB1): 0.498
- phosphorylation enrichment (EPHB2): 0.549
- phosphorylation enrichment (FGFR1): 0.438
- phosphorylation enrichment (FGFR3): 0.671
- phosphorylation enrichment (Fer (mouse)): 0.465
- phosphorylation enrichment (Fes): 1.12
- phosphorylation enrichment (Fyn): 0.476
- phosphorylation enrichment (Hck): 0.399
- phosphorylation enrichment (Jak2): 0.958
- phosphorylation enrichment (MERTK): 0.412
- phosphorylation enrichment (c-Abl (mouse)): 0.718
- phosphorylation enrichment (c-Src): 0.466

- SH2 binding enrichment (Grb2 SH2): 0.925
- SH2 binding enrichment (SHP2-C SH2): 0.755
- SH2 binding enrichment (c-Src SH2): 0.862
Sequence: SARVRYLMAEK [LDHB_Y173_F171V]
- phosphorylation enrichment (AncSZ): 0.579
- phosphorylation enrichment (EPHB1): 0.46
- phosphorylation enrichment (EPHB2): 0.521
- phosphorylation enrichment (FGFR1): 0.482
- phosphorylation enrichment (FGFR3): 0.532
- phosphorylation enrichment (Fer (mouse)): 0.439
- phosphorylation enrichment (Fes): 0.756
- phosphorylation enrichment (Fyn): 0.43
- phosphorylation enrichment (Hck): 0.423
- phosphorylation enrichment (Jak2): 0.39
- phosphorylation enrichment (MERTK): 0.417
- phosphorylation enrichment (c-Abl (mouse)): 0.472
- phosphorylation enrichment (c-Src): 0.38

- SH2 binding enrichment (Grb2 SH2): 0.724
- SH2 binding enrichment (SHP2-C SH2): 0.474
- SH2 binding enrichment (c-Src SH2): 0.421
Sequence: PMFTKYGNGLL [RPGRIP1L_Y196_S199G]
- phosphorylation enrichment (AncSZ): 1.28
- phosphorylation enrichment (EPHB1): 0.762
- phosphorylation enrichment (EPHB2): 0.525
- phosphorylation enrichment (FGFR1): 0.496
- phosphorylation enrichment (FGFR3): 0.668
- phosphorylation enrichment (Fer (mouse)): 0.71
- phosphorylation enrichment (Fes): 1.1
- phosphorylation enrichment (Fyn): 0.494
- phosphorylation enrichment (Hck): 0.534
- phosphorylation enrichment (Jak2): 1.09
- phosphorylation enrichment (MERTK): 0.518
- phosphorylation enrichment (c-Abl (mouse)): 1.31
- phosphorylation enrichment (c-Src): 0.79

- SH2 binding enrichment (Grb2 SH2): 1.07
- SH2 binding enrichment (SHP2-C SH2): 0.495
- SH2 binding enrichment (c-Src SH2): 0.498
Sequence: RRIFSYRGHLW [VHL_Y112_H110Y_YF]
- phosphorylation enrichment (AncSZ): 0.834
- phosphorylation enrichment (EPHB1): 0.47
- phosphorylation enrichment (EPHB2): 0.541
- phosphorylation enrichment (FGFR1): 0.731
- phosphorylation enrichment (FGFR3): 0.619
- phosphorylation enrichment (Fer (mouse)): 0.536
- phosphorylation enrichment (Fes): 0.897
- phosphorylation enrichment (Fyn): 0.763
- phosphorylation enrichment (Hck): 0.712
- phosphorylation enrichment (Jak2): 0.587
- phosphorylation enrichment (MERTK): 0.6
- phosphorylation enrichment (c-Abl (mouse)): 1.1
- phosphorylation enrichment (c-Src): 0.905

- SH2 binding enrichment (Grb2 SH2): 0.737
- SH2 binding enrichment (SHP2-C SH2): 0.511
- SH2 binding enrichment (c-Src SH2): 0.408
Sequence: VTVLDYDKTGK [SYT1_Y365_I368T]
- phosphorylation enrichment (AncSZ): 0.591
- phosphorylation enrichment (EPHB1): 0.365
- phosphorylation enrichment (EPHB2): 0.46
- phosphorylation enrichment (FGFR1): 0.463
- phosphorylation enrichment (FGFR3): 0.439
- phosphorylation enrichment (Fer (mouse)): 0.411
- phosphorylation enrichment (Fes): 0.712
- phosphorylation enrichment (Fyn): 0.442
- phosphorylation enrichment (Hck): 0.426
- phosphorylation enrichment (Jak2): 0.517
- phosphorylation enrichment (MERTK): 0.335
- phosphorylation enrichment (c-Abl (mouse)): 0.452
- phosphorylation enrichment (c-Src): 0.398

From the supplement of paper PMC10065799, “High-throughput profiling of sequence recognition by tyrosine kinases and SH2 domains using bacterial peptide display” (eLife, 2023)
